In patent publication US20250213666A1 (UNIVERSITY OF CINCINNATI, published 2025):

Target: T1, Intimin-spike fusion protein (Intimin-Spike-RBD) surface displayed on E. coli Nissle 1917 (SARS-CoV-2)
T1 construct: also called pInt-spike; pInt-Spike-RBD
Assay: cell aggregation assay (OD600) of nanobody-bearing EcN with spike-bearing EcN

B1: Lpp-OmpA-VHH72 nanobody (pLpp-OmpA-VHH72), surface displayed on E. coli Nissle 1917 or on its OMVs (VHH)
chain: CSSNAKIDQGINNNGPTHENQLGAGAFGGYQVNPYVGFEMGYDWLGRMPYKGSVENGAYKAQGVQLTAKLGYPITDDLDIYTRLGGMVWRADTKSNVYGKNHDTGVSPVFAGGVEYAITPEIATRKLENLYFQGTRQVQLQESGGGLVQAGGSLRLSCAASGRTFSEYAMGWFRQAPGKEREFVATISWSGGSTYYTDSVKGRFTISRDNAKNTVYLQMNSLKPDDTAVYYCAAAGLGTVVSEWDYDYDYWGQGTQVTVSSGSGSENLYFQGDYKDDDDKWSHPQFEKSR
notes: also called pLpp-OmpA-VHH72 Nb; Lpp-OmpA-VHH72 Nb
B1: no binding.
